Assay results as given in US20240117018A1.

What was measured:
Test in all cases: cell-based or functional assay
[1] = target: HIV-1 Env of pseudovirus C2101.c01 (HIV-1)
[2] = target: HIV-1 Env of pseudovirus CNE5 (HIV-1)
[3] = target: HIV-1 Env of pseudovirus 3365.v2.c2 (HIV-1)
[4] = target: HIV-1 Env of pseudovirus 3415.v1.c1 (HIV-1)
[5] = target: HIV-1 Env of pseudovirus 0260.v5.c36 (HIV-1)

Substance | IC50 neutralization (TZM.bl) [1] [µg/mL] | IC80 neutralization (TZM.bl) [1] [µg/mL] | IC50 neutralization (TZM.bl) [2] [µg/mL] | IC80 neutralization (TZM.bl) [2] [µg/mL] | neutralization IC50 [3] [µg/mL] | neutralization IC80 [3] [µg/mL] | neutralization MPI [3] | neutralization IC50 [4] [µg/mL] | neutralization IC80 [4] [µg/mL] | neutralization MPI [4] | neutralization IC50 [1] [µg/mL] | neutralization IC80 [1] [µg/mL] | neutralization MPI [1] | neutralization IC50 [5] [µg/mL] | neutralization IC80 [5] [µg/mL] | neutralization MPI [5]
10-1074 (antibody) | > 50 | > 50 | > 50 | > 50 |  |  |  |  |  |  |  |  |  |  |  | 
N49P9 (antibody) |  |  |  |  | 0.059 | 0.198 | 100 | 0.137 | 0.502 | 100 | 0.051 | 0.209 | 100 | 0.466 | 1.85 | 100
